Results from patent publication US20230408517A1 (BIO TECHNE, published 2023).
Numbering of substitutions follows the chain as printed.

B1: 1035419 (antibody, V domains shown)
VH: QVQLKQSGAELVRPGASVKLSCKTSGYIFTSYWIHWIKQRSGQGLEWIARIYPGTGSTYNNEKFKGKATLTADKSSSTAYMQLSSLKSEDSAVYFCARGEDNLYFYAMDYWGQGTSVTVSS
VL: NIVLTQSPASLAVSLGQRATISCRASESVDSYGASFMHWCQQKPGQPPKLLIYLASNLESGVPARFSGSGSRTDFTLTIDPVEADDAATYYCQQNYEDPWTFGGGTKLEIK
B2: 1035433 (antibody, V domains shown)
VH: QVQLQQSGPQLVRPGASVKISCKASGYSFTIYWMHWVQQRPGQGLEWIGMIDPSDSETRLNQKFKDKATLTVDKSSSTAYMQLSSPTSEDSAVYYCARRGDYNFDYWGQGTTLTVSS
VL: DIVMTQAAPSVPATPGESVSISCRSSKSLLHSNGNTYLYWFLQRPGQSPQLLIFRMSNLASGVPDRFSGSGSGTAFTLRISRVEAEDVGVYYCMQHLEYPYTFGGGTKLEIK
B3: 1035240 (antibody, V domains shown)
VH: QVQLQQSGAELARPGASVKMSCKASGYTFTTYTMHWVKQRPGQGLEWIGYINPSSGYTNYNQKFKDKATLTADTSSSTAYMQLSSLTSEDSAVYYCARRNPLYAMDYWGQGTSVTVSS
VL: DIKMTQSPSSMYASLGERVTITCKASQDINSYLNWFQQKPGKSPKTLIYRANRLVDGVPSRFSGSGSGQDYSLTISSLEYEDMGIYYCLQYDEFPYTFGGGTKLEIK
B4: 1035752 (antibody, V domains shown)
VH: QVQLQQPGAELVRPGASVKMSCKASGYTFTSHSIHWVKQTPGQGLEWIGAVYPGNGDTSYYQKFKGKATLTADKSSSTAYMHLSSLTSEDSAVYYCARDGYSDYYAMDCWGQGTSVTVSS
VL: DIVMTQSQKFMSTSVGDRVSVTCKASQNVGTNVAWYQQKPGQSPKALIYSASYRYSGVPDRFTGSGSGTDFTLTINNVQSEDLAEYFCQQYNRYPWTFGGGTKLEIK
B5: 1035716 (antibody, V domains shown)
VH: EVLLQQSGPELVKPGASVKIPCKASGYTFTDYNMDWVKQSHGKSLEWIGDINPNNGGTIYNQKFKGKATLTVDKSSSTAYMELRSLTSEDTAVYYCAREGYGNYFDYWGQGTTLTVSS
VL: DILLTQSPAILSVSPGERVSFSCRASQSIGTSIHWYQQRTNGSPRLLIKYASESISGIPSRFSGSGSGTDYTLSINSVESEDIADYYCQQSYSWPTTFGAGTKLELK
B6: 1035414 (antibody, V domains shown)
VH: B1 VH with I37V, S57N, N60Y, S77T, F105Y
VL: B1 VL with A34T, C40Y, R65S, Y96N
B7: 1035224 (antibody, V domains shown)
VH: EVQLQQSGAEFVRPGALVKLSCKASGFNIKDDYMHWVKQRPEQGLEWIGWIDPENGNSIYDPKFQGKASITADTSSNTAYLQLSSLTSEDTAVYYCARGEYFGSGSFAYWGQGTLVTVSA
VL: QIVLTQSPAIMSASPGEKVTISCSASSSVSYMYWYQQKPGSSPKPWIYRTSNLASGVPARFSGSGSGTSYSLTISSMEAEDAATYYCQQYHSYPYMYTFGGGTKLEIK
B8: 1035423 (antibody, V domains shown)
VH: EVKLEESGGGLVQPGGSMKLSCTASGFTFSDAWMDWVRQSPEKGLEWVAEIRNKANNHATYYAESVKGRFTISRDDSKSSVYLQMNSLRAEDTGIYYCILFITYAMDYWGQGTSVTVSS
VL: DIVLTQSQKFMSTSVGDRVSITCKASQNVRTAVAWYQQKPGQSPKALIYLASNRHTGVPDRFTGSGSGTDFTLTISNVQSEDLADYFCLQHWNYPLTFGSGTKLELK

Biological target: T1, SARS-CoV spike RBD (R306-F527), C-terminal 6-His (SARS-CoV, UniProt P59594 306-527)
Assay: lateral flow NC50, RBD-AuNP vs immobilised ACE2

B1 was tested, and the IC50 was 2.86 µg/mL.

Biological target: T2, recombinant monomeric SARS-CoV-2 S1 protein, his-tagged (SARS-CoV-2, UniProt P0DTC2 16-681)
T2 construct: domain: S1
Assay: flow cytometry, blocking of binding to hACE-2 cells

First: B2
Second: B3
The percent blocking of the first is lower: 9.3% for the first, 56.5% for the second.

First: B4
Second: B5
The percent blocking of the first is lower: 93.3% for the first, 93.8% for the second.

First: B6
Second: B1
The percent blocking of the first is lower: 25.9% for the first, 70.1% for the second.

B7 showed a percent blocking of 86.6%.

Biological target: T3, recombinant his-tagged homotrimeric SARS-CoV-2 spike protein (SARS-CoV-2, UniProt P0DTC2 16-1211)
Assay: as above

Compared with B2, B3 is higher in percent blocking: 82.5% for the first, 96.1% for the second.

Going from B4 to B5, the percent blocking rises from 91.8% to 96.5%.

First: B6
Second: B1
The percent blocking of the first is lower: 51.4% for the first, 89% for the second.

First: B8
Second: B7
The percent blocking of the first is lower: 91.6% for the first, 96.6% for the second.

Biological target: T4, recombinant monomeric SARS-CoV-1 S1 protein (SARS-CoV-1, UniProt P59594 14-667)
Assay: as above

B2 and B3 are the same in percent blocking: 0% for the first, 0% for the second.

Compared with B4, B5 is higher in percent blocking: 0% for the first, 89.5% for the second.

Compared with B6, B1 is higher in percent blocking: 12% for the first, 88.5% for the second.

B8 and B7 are the same in percent blocking: 0% for the first, 0% for the second.

Biological target: T1, SARS-CoV spike RBD (R306-F527), …
Assay: as above

B2 and B3 are the same in percent blocking: 0% for the first, 0% for the second.

First: B4
Second: B5
The percent blocking of the first is lower: 0% for the first, 68.7% for the second.

Going from B6 to B1, the percent blocking rises from 0.4% to 44.1%.

B8 and B7 are the same in percent blocking: 0% for the first, 0% for the second.

Biological target: T2, recombinant monomeric SARS-CoV-2 S1 …
Assay: as above
Remark: another data set of the same source

Compared with B2, B3 is higher in percent blocking: 9.3% for the first, 56.5% for the second.

Compared with B4, B5 is higher in percent blocking: 93.3% for the first, 93.8% for the second.

Going from B6 to B1, the percent blocking rises from 25.9% to 70.1%.

Going from B8 to B7, the percent blocking rises from 19.7% to 86.6%.

Biological target: T3, recombinant his-tagged homotrimeric …
Assay: as above
Remark: another data set of the same source

First: B2
Second: B3
The percent blocking of the first is lower: 82.5% for the first, 96.1% for the second.

First: B4
Second: B5
The percent blocking of the first is lower: 91.8% for the first, 96.5% for the second.

First: B6
Second: B1
The percent blocking of the first is lower: 51.4% for the first, 89% for the second.

First: B8
Second: B7
The percent blocking of the first is lower: 91.6% for the first, 96.6% for the second.

Biological target: T4, recombinant monomeric SARS-CoV-1 S1 …
Assay: as above
Remark: another data set of the same source

B2 and B3 are the same in percent blocking: 0% for the first, 0% for the second.

Compared with B4, B5 is higher in percent blocking: 0% for the first, 89.5% for the second.

Going from B6 to B1, the percent blocking rises from 12% to 88.5%.

B8 and B7 are the same in percent blocking: 0% for the first, 0% for the second.

Biological target: T1, SARS-CoV spike RBD (R306-F527), …
Assay: as above
Remark: another data set of the same source

B2 and B3 are the same in percent blocking: 0% for the first, 0% for the second.

First: B4
Second: B5
The percent blocking of the first is lower: 0% for the first, 68.7% for the second.

Compared with B6, B1 is higher in percent blocking: 0.4% for the first, 44.1% for the second.

B8 and B7 are the same in percent blocking: 0% for the first, 0% for the second.

Biological target: T1, SARS-CoV spike RBD (R306-F527), …
Assay: dipstick, adsorbed RBD spots, Ab 10 µg/mL, GAM-AuNP

B7: no binding (tested: 10 µg/mL).

Biological target: T1, SARS-CoV spike RBD (R306-F527), …
Assay: as above
Remark: another data set of the same source

B3: no binding (tested: 10 µg/mL).

Biological target: T4, recombinant monomeric SARS-CoV-1 S1 …
Assay: antigen-down ELISA, coated SARS-CoV-1 S1 titrated, Ab 1 µg/mL

B8: no binding (tested: 400 ng coated (axis)).

Biological target: T4, recombinant monomeric SARS-CoV-1 S1 …
Assay: as above
Remark: another data set of the same source

B2: no binding (tested: 400 ng coated (axis)).

Biological target: T4, recombinant monomeric SARS-CoV-1 S1 …
Assay: as above
Remark: another data set of the same source

B4: no binding (tested: 400 ng coated (axis)).

Biological target: T4, recombinant monomeric SARS-CoV-1 S1 …
Assay: as above
Remark: another data set of the same source

B7: no binding (tested: 400 ng coated (axis)).

Biological target: T4, recombinant monomeric SARS-CoV-1 S1 …
Assay: as above
Remark: another data set of the same source

B3: no binding (tested: 400 ng coated (axis)).

Biological target: T5, BSA (bovine, UniProt P02769)
T5 construct: also called bovine serum albumin
Assay: dipstick, adsorbed protein spots, Ab 10 µg/mL, GAM-AuNP

T5 sequence (P02769 25-607 limits assumed): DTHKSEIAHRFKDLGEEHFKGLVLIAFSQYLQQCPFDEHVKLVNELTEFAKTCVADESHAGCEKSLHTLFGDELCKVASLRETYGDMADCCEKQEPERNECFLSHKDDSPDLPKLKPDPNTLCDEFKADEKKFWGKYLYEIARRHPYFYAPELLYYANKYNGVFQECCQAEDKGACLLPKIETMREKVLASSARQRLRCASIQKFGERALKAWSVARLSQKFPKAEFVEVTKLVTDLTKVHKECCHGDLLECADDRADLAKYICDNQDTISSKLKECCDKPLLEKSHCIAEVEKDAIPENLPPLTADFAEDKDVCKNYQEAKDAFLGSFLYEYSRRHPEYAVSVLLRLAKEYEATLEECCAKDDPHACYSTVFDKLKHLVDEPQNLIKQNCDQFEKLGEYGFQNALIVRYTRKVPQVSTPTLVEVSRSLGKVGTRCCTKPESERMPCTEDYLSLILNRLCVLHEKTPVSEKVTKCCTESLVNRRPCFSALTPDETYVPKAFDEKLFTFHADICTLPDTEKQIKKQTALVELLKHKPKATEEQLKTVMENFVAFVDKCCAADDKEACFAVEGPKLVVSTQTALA

B3: no binding (tested: 10 µg/mL).

Biological target: T5, BSA
Assay: dipstick, adsorbed protein spots, Ab 10 µg/mL (reference)

B1: no binding (tested: 10 µg/mL).

Biological target: T1, SARS-CoV spike RBD (R306-F527), …
Assay: antigen-down ELISA, coated SARS-CoV-1 S1 RBD titrated, Ab 1 µg/mL

B8: no binding (tested: 400 ng coated (axis)).

Biological target: T1, SARS-CoV spike RBD (R306-F527), …
Assay: as above
Remark: another data set of the same source

B2: no binding (tested: 400 ng coated (axis)).

Biological target: T1, SARS-CoV spike RBD (R306-F527), …
Assay: as above
Remark: another data set of the same source

B4: no binding (tested: 400 ng coated (axis)).
